Results published in patent US20160327558.

Substance: Human cathepsin B
- in vitro protease activity measurements (zRR-AMC cleavage) (probe 5 (FITC-LRSR-AOMK)): also abrogated cathepsin B activity even though slightly less efficient
- in vitro protease activity measurements (zRR-AMC cleavage) (z-VRPR-FMK): also abrogated cathepsin B activity even though slightly less efficient
